Data from article PMC12646662.

Key:
[1] = molecular target: GSDMA; assay: Flag IP with mass spectrometry (LFQ); details: SK-Mel-28 cells; read off a plot
[2] = molecular target: E-cadherin, endogenous in SK-Mel-28 cells; assay: Flag IP with mass spectrometry (LFQ); details: read off a plot

Flag-CTNND1 WT, stably expressed in SK-Mel-28 cells (from UniProt O60716) C618S
log10 ratio [1]: 2.2 | log10 ratio [2]: -2.5
